pIC50, pKd: −log10 of the molar value. Blank lines part the entries; values can stand above or below the sequence they belong to.
How the values were obtained:
HLA-A*24:02 [1] = assay: IEDB peptide-MHC binding, purified MHC/competitive/fluorescence; ≥ and ≤ were set here for values at or beyond the usual limits of such assays
HLA-A*02:01 [2] = assay: as above
HLA-A*02:01 [3] = assay: IEDB peptide-MHC binding, purified MHC/competitive/fluorescence; filed as Kd, often an IC50 or EC50 that approximates it; ≥ and ≤ were set here for values at or beyond the usual limits of such assays
HLA-B*53:01 = assay: IEDB peptide-MHC binding, purified MHC/competitive/radioactivity; filed as Kd, often an IC50 or EC50 that approximates it; ≥ and ≤ were set here for values at or beyond the usual limits of such assays
HLA-A*01:01 = assay: as above
HLA-B*44:02 = assay: as above
HLA-B*44:03 = assay: as above
HLA-A*03:01 [4] = assay: IEDB peptide-MHC binding, purified MHC/direct/fluorescence; filed as Kd, often an IC50 or EC50 that approximates it; ≥ and ≤ were set here for values at or beyond the usual limits of such assays
HLA-A*31:01 [5] = assay: as above
HLA-A*30:01 = assay: IEDB peptide-MHC binding, purified MHC/competitive/radioactivity; filed as Kd, often an IC50 or EC50 that approximates it; ≥ and ≤ were set here for values at or beyond the usual limits of such assays
HLA-A*32:01 = assay: as above
HLA-B*15:01 = assay: IEDB peptide-MHC binding, purified MHC/direct/fluorescence; filed as Kd, often an IC50 or EC50 that approximates it; ≥ and ≤ were set here for values at or beyond the usual limits of such assays; conditions: source organism: Haemophilus influenzae
HLA-A*02:01 [6] = assay: as above; conditions: source organism: Haemophilus influenzae
HLA-A*68:01 = assay: IEDB peptide-MHC binding, purified MHC/competitive/radioactivity; filed as Kd, often an IC50 or EC50 that approximates it; ≥ and ≤ were set here for values at or beyond the usual limits of such assays
HLA-A*03:01 [7] = assay: as above
HLA-A*33:01 = assay: as above
HLA-A*31:01 [8] = assay: as above
HLA-A*30:02 = assay: as above
HLA-A*26:01 = assay: as above
HLA-A*29:02 = assay: as above
HLA-A*24:02 [9] = assay: as above; conditions: source organism: Lymphocytic choriomeningitis virus (strain Armstrong)
HLA-A*23:01 = assay: as above; conditions: source organism: Lymphocytic choriomeningitis virus (strain Armstrong)
[10] = source organism: Zaire ebolavirus
[11] = source organism: Vaccinia virus Copenhagen
[12] = source organism: Dengue virus 1 Singapore/S275/1990
[13] = source organism: Dengue virus 3 Martinique/1243/1999
[14] = source organism: Sudan ebolavirus
[15] = source organism: Giardia lamblia ATCC 50803
[16] = source organism: Vaccinia virus WR
[17] = source organism: Dengue virus 2 Jamaica/1409/1983
[18] = source organism: Dengue virus 4 Philippines/H241/1956
[19] = source organism: Vaccinia virus
[20] = source organism: Dengue virus 1 Brazil/97-11/1997
[21] = source organism: Haemophilus influenzae
[22] = source organism: Mammarenavirus machupoense
[23] = source organism: Mammarenavirus juninense
[24] = source organism: Lymphocytic choriomeningitis virus (strain Armstrong)
[25] = source organism: Entamoeba histolytica HM-1:IMSS

Sequence: LGVIHNSTL
pIC50 (HLA-A*24:02 [1]; [10]): 4.29 | pIC50 (HLA-A*02:01 [2]; [10]): 4.16

Sequence: LLNNSLGSV
pKd (HLA-A*02:01 [3]; [11]): 8.44

Sequence: LTDFQSHQLW
pKd (HLA-B*53:01; [12]): 5.80 | pKd (HLA-A*01:01; [12]): 5.43

Sequence: MEDKTPVTTW
pKd (HLA-B*44:02; [13]): 6.94 | pKd (HLA-B*44:03; [13]): 6.74

Sequence: MEGLSLLQL
pIC50 (HLA-A*24:02 [1]; [14]): 4.65 | pIC50 (HLA-A*02:01 [2]; [14]): ≤ 4.05

Sequence: MFLITENKIW
pKd (HLA-B*53:01; source organism: Dengue virus 1 Nauru/West Pac/1974): 5.05

Sequence: MNQERRSLR
pKd (HLA-A*03:01 [4]; [15]): ≤ 4.70 | pKd (HLA-A*31:01 [5]; [15]): 6.93

Sequence: MSRRYSREK
pKd (HLA-A*30:01; [16]): 8.88

Sequence: MTLFKSILF
pKd (HLA-A*32:01; [16]): 7.95

Sequence: MTLGMCCII
pKd (HLA-A*32:01; [17]): 5.59

Sequence: MTTEDMLKVW
pKd (HLA-B*53:01; [18]): 5.94

Sequence: MTVASRQPI
pKd (HLA-A*32:01; [16]): 5.54

Sequence: NHALSELPET
pKd (HLA-A*30:01; [17]): 5.91

Sequence: NIGNTKSNI
pIC50 (HLA-A*24:02 [1]; [19]): ≤ 3.75 | pIC50 (HLA-A*02:01 [2]; [19]): ≤ 3.18

Sequence: PYFGPAAEG
pIC50 (HLA-A*24:02 [1]; [10]): 4.89

Sequence: QYSDRRWCFD
pKd (HLA-A*32:01; [20]): ≤ 4.27

Sequence: RAREQISNL
pKd (HLA-A*30:01; source organism: Cowpox virus): 8.56

Sequence: REEEEAGVLW
pKd (HLA-B*44:02; [17]): 7.29 | pKd (HLA-B*44:03; [17]): 7.44

Sequence: RFRFRSVYG
pKd (HLA-A*30:01; [16]): 9.45

pKd (HLA-A*03:01 [4]; [21]): 4.74 | pKd (HLA-B*15:01): 5.89 | pKd (HLA-A*31:01 [5]; [21]): 5.68 | pKd (HLA-A*02:01 [6]): 5.50
Sequence: RMGVKSQLL

Sequence: RQVEKVETW
pKd (HLA-A*32:01; [13]): 7.10

Sequence: RTSSDPGTN
pIC50 (HLA-A*24:02 [1]; [10]): ≤ 4.01

Sequence: RTYSDPLAL
pKd (HLA-A*32:01; [20]): 7.48

Sequence: SIQKNTIFK
pKd (HLA-A*68:01; [22]): 6.79 | pKd (HLA-A*30:01; [22]): 7.20 | pKd (HLA-A*03:01 [7]; [22]): 7.98 | pKd (HLA-A*33:01; [22]): ≤ 4.64 | pKd (HLA-A*31:01 [8]; [22]): 5.72

Sequence: SIRRNLALK
pKd (HLA-A*30:01; [16]): 7.91

Sequence: SLFSLLLVI
pKd (HLA-A*32:01; [16]): 7.56

Sequence: SVIGTFVAEF
pKd (HLA-A*01:01; [23]): 5.45 | pKd (HLA-A*30:02; [23]): 6.96 | pKd (HLA-A*30:01; [23]): 5.62 | pKd (HLA-A*32:01; [23]): 6.71 | pKd (HLA-A*26:01; [23]): 8.47 | pKd (HLA-A*29:02; [23]): 6.77

Sequence: SVNSFTLLI
pKd (HLA-A*32:01; [11]): 8.58

Sequence: TARSNNRLA
pKd (HLA-A*30:01; [16]): 7.24

Sequence: TDFQSHQLW
pKd (HLA-B*44:02; [12]): 7.43

Sequence: TLRAAMISL
pKd (HLA-A*02:01 [3]; source organism: Vaccinia virus WR 65-16): 5.64 | pKd (HLA-A*30:01; [16]): 9.15

Sequence: TTYLGPLSCK
pKd (HLA-A*68:01; [24]): 8.33 | pKd (HLA-A*30:01; [24]): 6.36 | pKd (HLA-A*03:01 [7]; [24]): 8.35 | pKd (HLA-A*33:01; [24]): 6.19 | pKd (HLA-A*31:01 [8]; [24]): 6.27

Sequence: TVKDGRLGA
pKd (HLA-A*30:01; [16]): 6.62

Sequence: VDNLTYVQL
pIC50 (HLA-A*24:02 [1]; [10]): ≤ 3.93

Sequence: VMEITAEWLW
pKd (HLA-B*53:01; source organism: Dengue virus 3 Singapore/8120/1995): 5.99

Sequence: VNPEIDTTI
pIC50 (HLA-A*24:02 [1]; [10]): 4.79 | pIC50 (HLA-A*02:01 [2]; [10]): ≤ 3.45

Sequence: VQLESRFTP
pIC50 (HLA-A*24:02 [1]; [10]): 4.23 | pIC50 (HLA-A*02:01 [2]; [10]): ≤ 3.71

Sequence: VTEIGRVPSH
pKd (HLA-A*30:01; [13]): ≤ 4.64

Sequence: WFNYLFGGF
pIC50 (HLA-A*24:02 [1]; source organism: Variola virus): 6.32 | pIC50 (HLA-A*02:01 [2]; source organism: Variola virus): ≤ 3.98

Sequence: WYKVFVPRR
pKd (HLA-A*03:01 [4]; [25]): ≤ 4.70 | pKd (HLA-A*31:01 [5]; [25]): 6.99

Sequence: YEDKVWDKY
pKd (HLA-A*01:01; [24]): 5.15 | pKd (HLA-A*30:02; [24]): 5.57 | pKd (HLA-A*30:01; [24]): ≤ 4.49 | pKd (HLA-A*32:01; [24]): ≤ 4.11 | pKd (HLA-A*26:01; [24]): ≤ 4.11 | pKd (HLA-A*24:02 [9]): ≤ 4.11 | pKd (HLA-A*29:02; [24]): ≤ 4.52 | pKd (HLA-A*23:01): ≤ 4.11

Sequence: YPKTKLTDW
pKd (HLA-B*53:01; [18]): 5.84

Reference: the Immune Epitope Database (IEDB)
